Experiment: label from the status in PepcDB records

Sequence	protein production
MQFIKNLQLNKKKDSDSSEQVLTNKKNKMKYEDFNFIRTLGTGSFGRVILATYKNGNYPPVAIKRFEKCKIIRQKQVDHVFSERKILNYINHPFCVNLHGSFKDDSYLYLVLEFVIGGEFFTFLRRNKRFPNDVGCFYAAQIVLIFEYLQSLNIVYRDLKPENLLLDKDGFIKMTDFGFAKIVETRTYTLCGTPEYIAPEILLNVGHGKAADWWTLGIFIYEILVGCPPFYANEPLLIYQKILEGIIYFPKFLDNNCKHLMKKLLSHDLTKRYGNLKKGAQNVKEHPWFSNIDWVNLLNKNVEVPYKPKYKNIFDSSNFERVQEDLTIADKITNENDPFYDW	failed
MKSGERSAVADRAQQIMSAARELLDAEGPDALSMRRIAERVGIRAPSLYKHFADKAALVAGLQAQGLTLLAEVQEAAEAEIGADPPLLVLGYAYRRHALASPHLYRITHGWPLARTALPEGLEDRAALPLARAVHGDINIARSFWAFAHGMVVLELDGRFPPGADLDVAWRTGCEAFTQAIRNRPHGSTA	not failed
MNASLTPDQVSKKLKQFFSDHLPISQFMGLEIESYDGDTLILTAPLEPNINDKQTAFGGSLYNAAVMACWGMVYLKTQEENIACNQVVTEGNMKYIAPVYGRIRAICHAPDEEELANFFDHFERKGKARISLEAAIYNDACVMKIEPETKPSVKFNGQYAILKNQ	not failed
MNEIYDREQMIKLLDLAKNTEMELPINLAIGLGLRISEVLGLTWDNIDFEENTITVNKITSRINGSVILKEPKTESSVRKISSPKELMSLLKEYKIKQNKNLLKSSIRNNNNLLFFNKKCEPIAEDVMSKKFKRFLEKNELPHIRFHDLRHSHVTLLINSKVPIKVISERVGHSNISTTLSVYSHVLKEMDKEASDKISESLFNANLEHHHHHH	not failed
MDHSLNSLNNFDFLARSFARMHAEGRPVDILAVTGNMDEEHRTWFCARYAWYCQQMMQARELELEH	not failed
TSTFYELFPKTFPKKLPIWTIDQSRLRKEYRQLQAQHHPDMAQQGSEQSSTLNQAYHTLKDPLRRSQYMLKLLRNIDLTQEQTSNEVTTSDPQLLLKVLDIHDELSQMDDEAGVKLLEKQNKERIQDIEAQLGQCYNDKDYAAAVKLTVELKYWYNLAKAFKDWAPGKQLEMNH	not failed
MNSEFDVIDRYFTRPRRNALLGPGDDAALIACKPGMDWAISVDTLVAGRHFFPDVDPATLGHKVLAVNLSDMAAMGATPCWATLSLTLTETLAQDDIWLKAFSSGFFALADQYQVELIGGDTTGGPLNISVQIIGEVERGKALRRSGAQPGDDIWVSGHLGDAALALQSLQQHVTLTAQEAAPCLAALHTPMPRVALGKALVNVAHSAIDISDGLLADLGHILDRSGVAATIDFDHIPRSPALKNKLQPENTVTNTICQLAIDCLLAGGDDYELCFTVPESKRDAVIQLAQESGILLSRIGKIIPGKGLTVLGTDSNPLIFKNKGYDHFSAR	failed
MTVSHHNASTARFYALRLLPGQEVFSQLHAFVQQNQLHAAWIAGCTGSLTDVALRYAGQEATTSLTGTFEVISLNGTLELTGEHLHLAVSDPYGAMLGGHMMPGCTVRTTLELVIGELPALTFSRQPCAISGYDELHISSRLEHHHHHH	not failed
MFNKLVFKNLKLKKLSTSLVVVASLLVAQAPFANYAEAAGAEKVEKKKKRPTQLVGPRVGKKVQKAFEAYSADDIKGALVILLDIEASKPYDKAYVSRMVAVMYATLGDNDQKTIEYLKKALEPDILNEVDQSESLKLLGDMQMQTKDYKGALKSFYAWMDFSGKDDGPTYVKIANAYYSLKQLDKVIEPADKAIAAFGDKPNQNPYILKITSYYERKMYKEAVKVLETVIQVFPENKQWWTQLPMFYLLIEDYDKAVQTLDLAYKLGHLDKESQIKTLASLYSQTEAPYKAAQLLEKYIASGLVKRDDKNISTLANAWHSAQHIDKAASYYGELAKMTSDAKHYRKQGMLLKQDEQFSKAIVALNKAIELGVSNQGRIHMSIAESYFYLEKYKKAYAAIQKAMKDPSARKSAKGWKSFIVDTARRKNVTI	failed
MNKAGARASDQETRRFGFVEWFRPGDYERAEVALPDILESGASYLRTHLSWAEYLAPGGQQWFDWLIPRIGGQIDLLPCIHYTPPSLSRTGRSSGPPVNLKSYADFVDHVLTRYGRYISHIELWNEPNNLLDWDWRHDSDFLLFCEMVGGAAYWAKQRGYKPVLGGPCPFDPYWLNLMGTRGVLGVVDAVGFHGFPGTWDSEEATWGGWDMHLGEMRGIIDRYNADAEIWITETGYSTWRNDEIEQARRFTKALKVPADRMYWYSWRDVPPDVPVQEGLWFDPRHYHLGAVSHDNKPKLLARLLTEGGVKRLEEVAALAAPNITSGAAPIIVTGGSGFVGCNLADRLLSDGEDVIILDNLARSGVDQNLSWLKERHGGRVHPVLADVRDLLGIEAAFRDAKAVFHYAAQTAVTTSLVDPLEDFETNARGTLNVLESIRRAGKRAPIIFASTNKVYGALDDLGMIELDDRYLPEDESIRTLGIGEDRPLDFCTPYGCSKGVADQYILDYAKSYGIPAAVLRMSCIYGPRQFGTEDQGWVAHFLIRALGGEPISIYGDGKQVRDILHVDDAVAAYRVLLSNIGQVSGKAFNLGGGPRNAVSVLAVLREIEELAGRPVETSFGPWRAGDQLYFVADTTRLEQETGWQAGIGWRHGLRHLAEWLIAHRFGGRQIRREKRKASA	failed
MTEKNTLKKSATLAAAGLVVAGALLAGCGESKATPMDDAYAGNSGETEKSQEEQSQSQSNGSDSSDGSDSGSSHNDPSTTTSDKKDTGNYKDGNYSINGQYGPVGEDSIDVHLTIKDGNVETVKIIGHPFTTISKNHQDDFAKAINGVVDGKPLKGLKVDKVAGASWTSDAFNKALEVARQEASIQE	failed
QPTAQQQLTKPAKITCANCKKPLQKGQTAYQRKGSAHLFCSTTCLSSFS	not failed
MDAEGNLFMSWRDGGTFGIARINEQQNIVTPLIEADAANRILYANGLTVDRATGMLTAAHESVKEVTFTFDPREAWYPRQRNIKYSQSDLNSIVDADRYKNFVTFCPYDGYLYTRYRDGKIAKIDPNTFEGHIIHQGPSGSQYGQAINPAKPWLLYITLHSNAPTAYRQGISVLDLRDPDGTGGFKRLNAPGGSAFRDGPIEDALFNYPKDIKFDNDGNMFVADYGNHCIRMISADNIVTTVAGQPGVAGYKDGGPVESLFKNPWGVAVNEQGDIYIADWGNARIRKLVIELEHHHHHH	failed
MEKKLAPQFDNFYQSCRRYFQKLSRNKNFRSLKVYLLILTIVMVVIINPLSSNISGIVNILPTTTEKITHKSSAQQTDKQSHKTSNKAAYKTSWIGNTFGGKKWVQIQMEGIYVTPNGTVYVNSHWDEAGREVGIYKDGDVIGKADDLHGWGRLGGKAITANQKYLYVAMRQSHEGKPEDDYPPKGTTWYNVRRYDLSGKPAPFAGGRGWDKSMLIVNSKNDVTGLATKDKELYVSDPANDRLRVYNTDTMQELRSFSVPNPGAIAVDRQNNLWVVQKKKIVRYSPQGKQLAQQITDVANPSAIAFDPQGRLLVADNGKRQQVLIYNIANKPKQVGTLGDKGGIYGGTSGEVKDGKLYGITGVGTDKSGNIYVSNHGFNSTGADLRKFSSSGKLQWRLLGLQFIDNADADPDSDGRDVFTKNEHFVMDYSKNNGKEWTYKGYTLDKFRYPDDGRLHTTPTSAFVRRLGGKRLLYLSSEMMAERLLIYRFDGEIAVPCGIFGKNHLSWPPNQPKDGSWLWRDVNGDGSIQNNEYKTLGEEDGSVWGWEIDSKGDIWQAAEAGYIKHYPYQKLDNHGCPIYGQAVGGRIPMPAPFKTLTRIKYFPKQDVMYLGGYTNEHPNLDGDWGLVGTEIVRYDNWSKKRNLRWRIVLPYNHQTDPKLHIKSIDVAGDRVFAVASKKAEVYVYKATTGEALQMLTPGAEVGGESGWIDIPYGIRAFRRANGEYLVFVEENAKGKVLMYRLPG	failed
MHNKKWDLRIICAHAFTILIWGTAFPAIRMGLESYTPEHLTLLRLLIASFILLLFSFIYKLRLPDLKDIPAIFIFGALGFTIYHIALNYGEKTVNAGSASLIISVTPIVTAILASVFLNEKMKLNGWLGGVISFAGIALISFSQGDAIQLNSGGLFILLAAISESLFFVFQTSYLKKYGFLPFTIYTILSSTVCMLIFLPGVYQEILAAPLEVNLSVIYLGVFPTVLPYIALAYIISRAGASEATSSLYLTPITACFIAWIWLGEVPTLVSIIGGGITILGIVIAHIPVLRKEKHRNLANNQSV	failed
MDTELMKLDVHVTAWSRTPSSSGFLNSVMISRDRDFEEFIINDRDGSVTSLGSYQNPSRGPDPLIFLDFRNFEPNYVYQLLLSQFHDHVLSEHIADQIGYTFGTCNSPTSTTDLDQESEEEE	failed
